Laboratory results taken from patent US20240294926.

Test system: PARP (endogenous, MDA-MB-231 cells) (Homo sapiens)
Assay: cell_activity
Conditions: cholesterol-conjugated, HEG loop, 5 uM, 48 h

| Sequence | activity (% PARylated cells) (3 PS linkages on each strand, PARP activation weaker than OX413) | activity (% PARylated cells) (FANA (2'-deoxy-2'-fluoroarabino) nucleotides and PS linkages (positions only in images), PARP activation) |
| --- | --- | --- |
| CCCAGCAAACAAGCCT (double strand) [OX401] | 20 | – |
| CCCAGCAAACAAGCCT (double strand) [OX413] | – | > 40 |
